In paper PMC11157053 one finds binding data, which are given here for three sequences.

This data set addresses T1, His6-LexA (Streptomyces mobaraensis NBRC 13819) (UniProt A0A5N5W758).
T1 sequence: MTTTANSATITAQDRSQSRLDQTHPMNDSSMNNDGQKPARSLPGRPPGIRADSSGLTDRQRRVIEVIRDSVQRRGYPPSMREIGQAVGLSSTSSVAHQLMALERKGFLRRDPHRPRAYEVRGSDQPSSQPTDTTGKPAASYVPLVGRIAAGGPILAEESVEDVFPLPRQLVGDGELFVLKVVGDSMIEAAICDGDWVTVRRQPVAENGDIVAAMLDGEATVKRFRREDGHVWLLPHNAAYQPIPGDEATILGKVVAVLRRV
The experiment in a line: EMSA. To be noted: EMSA: 0, 100, 200 ng His6-LexA, 25 nM probe, 20 uL; 30 mM KCl, 10 mM Tris-HCl (pH not stated), 0.4 mM DTT, 2 mM MgCl2, 0.2 mM EDTA, 2% glycerol; 30 min, 30 C …. (In general: In EMSA bound probe runs differently from free probe, usually more slowly.)

“CAGGCTGGTACTGATCGTCACCTGCGCGATTGGCGAGACACCTGCTGAGCAGACCGCCGCGGACCATCTCGGACACCTGCCCGACCGCTGCATTCGCCAACCGCCTCCGCACTCTCAACGACG (double strand) [Probe whiB (123 bp)]”: the binding result is recorded as “binds”.
As to “CGGTGTGGAAGGTGGCGTGTACGGCATACGGATCGGAAGTGTCGTACCGCAGACCTGCGGGTACAGGCAGTGACGATTCGCTCGACACAACGAGGCGCAGGTGCAG (double strand) [Probe ssgA (106 bp)]”, the binding entry is listed as “binds”.
The entry for “GAAAAGCGAACCAATTGGAATGTGGGGCCGGAACGGGAGGTCAGGCGTTCGACGTCACACTCCGCAGGGTACCGCTCACAGCCCGAAGCGGCGCTGGAGGTCTCCCAACTG (double strand) [Probe marR1 (112 bp)]” is “binds”.
